Values of other authors as cited in paper PMC7611479.

What was measured:
guanylin (Homo sapiens) = guanylin (Homo sapiens) (UniProt Q02747)
[1] = molecular target: uroguanylin (Homo sapiens) (UniProt Q16661)

**Q.** Which Kd (guanylin (Homo sapiens)) does the source give for GC-C ECD (from UniProt P25092) here?
**A.** 10 nM

**Q.** And the Kd [1]?
**A.** 1 nM
